Assays:
[1] = target: T1, SARS-CoV-2 S1 (HV69-70del, N501Y, D614G) (SARS-CoV-2, UniProt P0DTC2 16-685); test: SPR
T1 construct: domain: S1

[2] = target: T2, SARS-CoV-2 S1 (HV69-70del, Y453F, D614G) (SARS-CoV-2, UniProt P0DTC2 16-685); test: SPR
T2 construct: domain: S1

Binder | Kd [1] [nM] | Kd [2] [nM]
6-3 (Fc fusion) EVQLVESGGGLVQPGGSLRLSCAASGFTFSPSWMGWFRQAPGKEREFVATINEYGGRNYADSVKGRFTISADNSKNTAYLQMNSLKPEDTAVYYCARVDRDFDYWGQGTLVTVSS | 9.3 | 23
6-63 (Fc fusion) EVQLVESGGGLVQPGGSLRLSCAASGQTFNMGWFRQAPGKEREFVAAIGSGGSTSYADSVKGRFTISADNSKNTAYLQMNSLKPEDTAVYYCWRLGNDYFDYWGQGTLVTVSS | 63 | 96

Reference: patent US20230002478A1 (TWIST BIOSCIENCE, published 2023)
